Data published in US20260345776 (published 2026).

Experiments:
FOLR1 [1] = target: T1, FOLR1 (human, UniProt P15328); test: BLI, 25C
FOLR1 [2] = target: T1, FOLR1; test: FACS, FOLR+ KB cells

T1 sequence (P15328 25-234): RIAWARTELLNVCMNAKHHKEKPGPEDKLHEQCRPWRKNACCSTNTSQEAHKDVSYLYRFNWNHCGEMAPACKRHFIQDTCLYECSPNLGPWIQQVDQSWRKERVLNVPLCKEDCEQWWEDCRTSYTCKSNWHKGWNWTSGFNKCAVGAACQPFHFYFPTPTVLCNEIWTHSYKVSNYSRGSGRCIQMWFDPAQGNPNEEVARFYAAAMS

Kd (FOLR1 [1]): 0.345 nM
Kd (FOLR1 [2]): 16.1 nM
B1: b-SpyTag003(D2)-K(folate) (peptide)
chain: RGVPHIVMVDAYKRYKG
modifications: biotinylated; two D-arginine substitutions; additional C-terminal Lys conjugated to folate (folate is the FOLR1-binding moiety)
